Source: patent US10705101B2, “Determination of the unbound free fatty acid profiles in biological and industrial specimens” (priority 2013, dated 2020)

B1: ADIFAB2: acrylodan-labeled (lysine 27) mutant FABP probe: L72A (protein, UniProt P02693 2-132, looked up, variant L72A)
Fatty acid-binding protein, …: AFDGTWKVDRNENYEKFMEKMGINVVKRKLGAHDNLKLTITQEGNKFTVKESSNFRNIDVVFELGVDFAYSAADGTELTGTWTMEGNKLVGKFKRVDNGKELIAVREISGNELIQTYTYEGVEAKRIFKKE
modifications: acrylodan label on K27
notes: acrylodan-labeled (lysine 27) mutant FABP probe: L72A
B2: L11P7 B3 V26C: acrylodan-labeled mutant FABP probe: M21F, V26C, L72A, L78V, L102V (protein, UniProt P02693 2-132, looked up, variant M21F V26C L72A L78V L102V)
Fatty acid-binding protein, …: AFDGTWKVDRNENYEKFMEKFGINVCKRKLGAHDNLKLTITQEGNKFTVKESSNFRNIDVVFELGVDFAYSAADGTEVTGTWTMEGNKLVGKFKRVDNGKEVIAVREISGNELIQTYTYEGVEAKRIFKKE
modifications: acrylodan label
notes: acrylodan-labeled mutant FABP probe: M21F, V26C, L72A, L78V, L102V
B3: L10P7 A4 L30C: acrylodan-labeled mutant FABP probe: Y14L, M18L, K27A, L30C, G31Y, A73L, Y117A (protein, UniProt P02693 2-132, looked up, variant Y14L M18L K27A L30C G31Y A73L Y117A)
Fatty acid-binding protein, …: AFDGTWKVDRNENLEKFLEKMGINVVARKCYAHDNLKLTITQEGNKFTVKESSNFRNIDVVFELGVDFAYSLLDGTELTGTWTMEGNKLVGKFKRVDNGKELIAVREISGNELIQTATYEGVEAKRIFKKE
modifications: acrylodan label
notes: acrylodan-labeled mutant FABP probe: Y14L, M18L, K27A, L30C, G31Y, A73L, Y117A
B4: L1P8 H2: acrylodan-labeled mutant FABP probe: Y14M, L38M, L72W (protein, UniProt P02693 2-132, looked up, variant Y14M L38M L72W)
Fatty acid-binding protein, …: AFDGTWKVDRNENMEKFMEKMGINVVKRKLGAHDNLKMTITQEGNKFTVKESSNFRNIDVVFELGVDFAYSWADGTELTGTWTMEGNKLVGKFKRVDNGKELIAVREISGNELIQTYTYEGVEAKRIFKKE
modifications: acrylodan label
notes: acrylodan-labeled mutant FABP probe: Y14M, L38M, L72W
B5: L2P22 G6: acrylodan-labeled mutant FABP probe: M18I, G31Y, A73G (protein, UniProt P02693 2-132, looked up, variant M18I G31Y A73G)
Fatty acid-binding protein, …: AFDGTWKVDRNENYEKFIEKMGINVVKRKLYAHDNLKLTITQEGNKFTVKESSNFRNIDVVFELGVDFAYSLGDGTELTGTWTMEGNKLVGKFKRVDNGKELIAVREISGNELIQTYTYEGVEAKRIFKKE
modifications: acrylodan label
notes: acrylodan-labeled mutant FABP probe: M18I, G31Y, A73G

What was measured:
[1] = FFAu profiles in plasma of rats infused with nicotinic acid and different oils; type: in vivo; settings: rat plasma
Experimental: The 5 panels from top to bottom are: A: saline, B: nicotinic acid, C: nicotinic acid+safflower oil, D: nicotinic acid+olive oil, and E: nicotinic acid+coconut oil.
That the FFAu profiles are determined accurately by the method of the present invention is determined by infusing into the blood circulation, of animals and potentially in human subjects, oil/lipid emulsions of known composition, together with heparin. The oils are hydrolyzed by lipoprotein lipases that are released from the capillary endothelial cells by heparin. This lipase activity releases FFAu from the oil that is characteristic of the oil's known composition. Comparing FFAu profiles determined before and after infusion allows determination of the oil composition overlayed on the plasma matrix. Comparing results with different oils and at different levels assesses the validity of the method for determining FFAu profiles in blood samples (for example FIG. 2).
Results are averages of 7 animals for each condition. Nicotinic acid inhibits hormone sensitive lipase (HSL) in adipose tissue resulting in a reduction in circulating FFA levels. Whereas infusion of emulsions of oils of different compositions, together with heparin to activate lipoprotein lipase, will result in the increase of plasma FFA that reflect the composition of the infused oils. When infused together NA and oils results in FFAu profiles that are a conflation of the two effects. […] Adding NA reduces all FFAu except AA which becomes the dominant fraction at nearly 50%. […] NA plus coconut oil results in LAU and MA contributing over 90% of the total FFAu (total FFAu=sum of the concentrations of each of the 9 resolved FFAu). NA plus olive oil results in OA as the dominant FFAu but just barely because NA reduces baseline OA to zero and baseline LA is substantially larger than OA. Thus the FFAu profiles that result from NA plus oil are consistent with the conflation of the two effects. […] Whereas the amount of safflower and coconut oil infused increased the total FFAu to 42 and 92 nM, respectively, consistent with their dominant effects as compared to olive oil (FFAu total=8 nM).

[2] = Probe calibration by titration with FFA / FFA-BSA complexes: AA; type: binding; settings: equilibrium dissociation constant of probe for AA
Experimental: (§1) Calibration: Each probe is calibrated to the extent that the constants in Equation 2 are well determined for all FFAu to be included in profile calculations. Equation 2, which is the form of equation 1 for a single FFAu, relates the FFAu concentration to the equilibrium dissociation constant (Kd), fluorometric constants (Q and Rm) and the measured R values.
(§2) The calibration parameters are determined essentially as described in U.S. Pat. No. 7,601,510 which is incorporated herein by reference and (Huber et al Biochemistry (2006) 45:14263-14274) where the calibrated ADIFAB2 probe was used to generate FFA-BSA complexes with accurate and well buffered FFAu concentrations. To calibrate probes with substantially higher affinities than used in U.S. Pat. No. 7,601,510 and (Huber et al Biochemistry (2006) 45:14263-14274) a boot strap method is used in which a probe having higher affinities is calibrated with ADTFAB2. Such a probe is then used to generate FFA-BSA complexes with FFAu concentrations from 0.1 to 10 nM and these complexes are then used to calibrate other high affinity probes.
(§3) Probe calibration involves titrating the probes with either (i) un-buffered FFA or (ii) BSA-buffered FFA stocks. The un-buffered titrations involve measuring the R-value of a 1 μM probe solution as it is slowly titrated to saturation with small aliquots of a 100 to 250 μM FFA stock (Richieri G V et al. (1992) J Biol Chem 267: 23495-23501, Richieri G V et al. (1999) Mol Cell Biochem 192: 87-94). In this case, the total FFA concentration for each point in the titration is known and a nonlinear fit to the titration data yields the full set of fluorometric constants. In an un-buffered FFA titration, probe concentration is a key variable because the probe binds FFA, directly affecting the FFAu value.
(§4) Alternatively, in a BSA-buffered FFA calibration, the probe solution is titrated with a series of FFA-BSA complexes (600 μM BSA with [FFAu] ranging from 0.1 nM to 4 μM). The titration samples are FFA-BSA complex diluted 50-fold in Measuring Buffer. Probe is added to a concentration of 0.5 μM and the R-value is measured. Because BSA buffers FFAu, its concentration remains constant (i.e. known), even after the addition of probe. […] At least two calibrations with each of the up to 15 different FFA are performed for each probe.
(§5) All of the probes reveal substantial differences for different FFAu and in many cases these differences are related to the aqueous solubility of the FFA. For example, of the FFA in Table 3, SA is the least soluble and MA the most soluble. As discussed in (Richieri G V et al (2000) Biochemistry 39: 7197-7204) the tendency of natural proteins and FABPs, in particular, is for binding constants to be largest (smallest Kd) for the least soluble FFA and conversely for the most soluble FA. In two cases, ADIFAB2 and L11, Kd for SA is substantially the smallest and MA the largest and that pattern is more or less maintained for most of the other probes in Table3 with the exception of L83. In that case MA has the largest affinity while SA's more than 10 fold smaller. To some extent the other calibrations constants follow that behavior; Q is largest for the smallest Kd and Rmax is often largest, so that the probe response tends to be larger for FFA with the larger affinities. The ability to generate mutations that overcome the “natural thermodynamics” allows for probes that have a wide range of specificities and sensitivities than enable the determination of FFAu profiles.

[3] = Probe calibration by titration with FFA / FFA-BSA complexes: DHA; type: binding; settings: equilibrium dissociation constant of probe for DHA
Experimental: as §1, §2, §3, §4, §5

[4] = Probe calibration by titration with FFA / FFA-BSA complexes: LNA; type: binding; settings: equilibrium dissociation constant of probe for LNA
Experimental: as §1, §2, §3, §4, §5

[5] = Probe calibration by titration with FFA / FFA-BSA complexes: LA; type: binding; settings: equilibrium dissociation constant of probe for LA
Experimental: as §1, §2, §3, §4, §5

[6] = Probe calibration by titration with FFA / FFA-BSA complexes: OA; type: binding; settings: equilibrium dissociation constant of probe for OA
Experimental: as §1, §2, §3, §4, §5

[7] = Probe calibration by titration with FFA / FFA-BSA complexes: PA; type: binding; settings: equilibrium dissociation constant of probe for PA
Experimental: as §1, §2, §3, §4, §5

[8] = Probe calibration by titration with FFA / FFA-BSA complexes: POA; type: binding; settings: equilibrium dissociation constant of probe for POA
Experimental: as §1, §2, §3, §4, §5

[9] = Probe calibration by titration with FFA / FFA-BSA complexes: SA; type: binding
Experimental: as §1, §2, §3, §4, §5

[10] = Probe calibration by titration with FFA / FFA-BSA complexes: MA; type: binding; settings: equilibrium dissociation constant of probe for MA
Experimental: as §1, §2, §3, §4, §5

[11] = Probe response (increase in R) to 1 nM SA; type: binding; settings: 1 nM of SA, FIG. 1
From the text: The set of probes chosen to determine the profile of a sample depends upon the nature of the sample, the types of FFA expected to be present in the sample and the determination that the chosen probes respond to the expected FFA. In addition, especially for the least abundant FFAu in a sample, the probe's sensitivity for a given FFAu must be sufficient to accurately quantitate the low concentration FFAu, for example less than 50 pM. Sensitivity is a function of the Kd, Q, Ro and Rm parameters. Differences in sensitivity among different FFAu probes are apparent in FIG. 1 where for example for ADIFAB2 (acrylodan labeled at lysine 27), 1 nM of SA produces a 20% increase in R while for L11P7B3V26C the increases is almost 500%. […] In the absence of absolutely specific and sensitive probes the determination of FFAu profiles requires an over determined system, which empirically requires about twice the number of probes as FFAu to obtain accurate profiles. The identity of the set of probes to achieve accurate FFAu profiles is not unique. […]
The response profile is the fluorescence change as evaluated as (R−Ro)/Ro (ΔR/Ro) for each FFAu added as a complex of the FFA and albumin so that the FFAu concentration is clamped or buffered at 1 nM for every FFAu for which a calibration has been performed. […]

[12] = Probe response profile / specificity for different FFAu at 1 nM; type: binding; settings: FFAu giving the largest response to 1 nM of each FFAu; several listed in order of degree of specificity
From the text: The abbreviations are: arachidonate (AA), docosahexaenoate (DHA), eicosapentaenoate (EPA), laurate (LAU), linoleate (LA), linolenate (LNA), myristate (MA), oleate (OA), palmitate (PA), palmitoleate (POA), stearate (SA), and vaccenate (VA).
Examples of probes used, generally in groups of 10 or more, to determine FFAu profiles in biological samples such as blood plasma or serum from animals and humans or media from microorganisms are shown in Table 2. In the sequences presented in Table 2 and the sequence listing, amino acids are numbered from the first residue of the mature protein. The initiator methionine residue of the wild-type protein is removed by aminopeptidase activity, leaving an alanine as residue 1. Thus, counting backwards and skipping 0, the initiator methionine is at residue position −1. Specificity indicates the FFAu that gives the largest response to 1 nM of each FFAu when one FFAu dominates the profile and more than one when there is a more even distribution of specificity. Where more than one is indicated they are listed in order of degree of specificity. The abbreviations are: arachidonate (AA), docosahexaenoate (DHA), eicosapentaenoate (EPA), laurate (LAU), linoleate (LA), linolenate (LNA), myristate (MA), oleate (OA), palmitate (PA), palmitoleate (POA), stearate (SA), and vacsinate (VA). The sequences indicate mutations relative to SEQ ID NO: 1. This sequence is a mutated rat intestinal fatty acid binding protein with a Glu 131 to Asp substitution and includes a COOH-terminal affininity tag comprising […], Gly 133 and 6 histidines.
The response profile is the fluorescence change as evaluated as (R−Ro)/Ro (ΔR/Ro) for each FFAu added as a complex of the FFA and albumin so that the FFAu concentration is clamped or buffered at 1 nM for every FFAu for which a calibration has been performed. The calculation is performed simply by rearranging equation 2 to solve for ΔR/Ro. […] However all the probes have different profiles and therefore complementary specificities for different FFAu. Abbreviations are as in Table 2.

[13] = equilibrium dissociation constant of probe for SA, read-out: Kd SA

Molecule	AA fraction of FFAu profile [1] [%]	baseline OA [1]	total FFAu ([1]; sum of 9 resolved FFAu, averages of 7 animals) [nM]	reduction of total FFAu ([1]; versus saline, no infused oil)	Kd [2] [nM]	Kd [3] [nM]	Kd [4] [nM]	Kd [5] [nM]	Kd [6] [nM]	Kd [7] [nM]	Kd [8] [nM]	Kd [9, 13] [nM]	Kd [10] [nM]	increase in R [11] [%]	Kd ([9]; read-out: Kd for SA) [nM]	Specificity [12]
O=C(O)c1cccnc1 [NA, nicotinic acid]	~50	zero	2	more than 4 fold	–	–	–	–	–	–	–	–	–	–	–	–
B1	–	–	–	–	167	253	237	101	32	21.4	257	9.3	324	20	–	–
B2	–	–	–	–	6.1	7.5	11.2	3.9	1	1.1	11.1	–	18.8	~500	0.25	–
B3	–	–	–	–	1	1.2	2.7	1.1	1.3	3	5.5	2	15.4	–	–	AA/DHA/OA/EPA/LA
B4	–	–	–	–	104	248	217	97.5	14.4	45.4	209	19.2	299	–	–	OA/SA/VA
B5	–	–	–	–	90.6	206	89	42.2	33.9	5.6	87.9	17.6	47.8	–	–	–
